Data set [1] relates to Ca2+ and phospholipid dependent protein kinase (PKC). Description: Protein kinase activity of Ca2+ and phospholipid dependent protein kinase with biotinylated neurogranin(28-43), streptavidin-linked disk, 32P. It counts as biochemical. The protocol: The protein kinase activity of Ca^2+ and phospholipid dependent protein kinase activity (PKC) was determined in a similar manner to that of PKA described above, except that the biotinylated peptide substrate was a derivative of neurogranin; namely, biotinylated neurogranin(28-43) Chen, S-J, et al., 1993.
The peptide was modified by the addition of biotin containing moiety: *-Ala-Ala-Lys-Ile-Gln-Ala-Ser-Phe-Arg-Gly-His-Met-Ala-Arg-Lys-Lys (Promega Peptide B, SEQ. ID. 2, Mol.Wt. is 2139.6), and was used at a concentration of 100 μM. The enzyme (#V5261, Promega Corporation) was diluted 5× in 100 μg/ml of BSA.
The kinase activity of the […] was determined in a reaction volume of 50 μL consisting of 40 mM Tris. HCl, pH 7.4, 10 mM MgCl2, BSA at 100 μg/ml, and 100 μM of τ-^32P-ATP (sp.act. of 100 cpm/pmol). The activity was determined in the presence and absence of 100 μg/ml of phosphatidylserine, 10 μg/ml of diacylglycerol and 0.4 mM calcium chloride. Reaction was started with the addition of 5 μL of the enzyme and incubated at 25° C. After specified periods of time, reactions were terminated by the addition of 10 μL of terminating solution (see above). Twenty-five μL aliquots were aliquoted on disks and the disks were processed as described above for PKA.

In data set [2] the test system is T1, biotinylated Promega Peptide A (*-Leu-Arg-Arg-Ala-Ser-Leu-Gly).
T1 sequence: LRRASLG

The target in data set [3] is T2, cAMP-dependent protein kinase (PKA) (Bos taurus, UniProt P00517).
T2 construct: V5161 (general description)
In words: Kinase activity of cAMP-dependent protein kinase with biotinylated peptide substrate, streptavidin-linked disk, 32P. In kind it is biochemical. As to conditions: PKA 2 Kemptide units per reaction, 100 μM ATP, 37° C., FIG. 3. The protocol: The kinase activity of cAMP-dependent protein kinase (PKA) was carried out in duplicates at each of the various peptide substrate concentrations, in a reaction volume (50 μL) containing 40 mM Tris HCl, pH 7.4, 20 mM MgCl2, 100 μM τ-^32P-ATP (sp.act.of 100-200 cpm/pmol), 100 μg/ml of bovine serum albumin (BSA), and the appropriate biotinylated peptide substrate: *-Leu-Arg-Arg-Ala-Ser-Leu-Gly (Promega Peptide A, SEQ. ID. 1, M.Wt of 998.4).
The reaction was started by addition of the appropriate amount of enzyme (Promega #V5221) to give 2 Kemptide units and incubated for 0, 5, and 10 minutes at 37° C. (one Kemptide unit is defined as the amount of enzyme required to catalyze the incorporation of 1 pmol of phosphate into Kemptide substrate in 1 minute). At specified periods of time at the appropriate temperature, the reaction was terminated with the addition of 10 μL of terminating solution as described above.
Twenty-five μL aliquots were withdrawn and spotted in a 12.5 mm (i.d.) streptavidin-linked disk (0.5 mg of streptavidin/disk) and placed in 2M NaCl-containing beaker. After one minute of gently swirling the beaker at room temperature, fresh NaCl was added. This washing procedure was repeated 5 more times at one minute each. […]
Enzyme activity was calculated by determining the radioactivity via liquid scintillation spectrometry. […]

Data set [4] has as its system T3, biotinylated neurogranin(28-43) (Promega Peptide B, *-Ala-Ala-Lys-Ile-Gln-Ala-Ser-Phe-Arg-Gly-His-Met-Ala-Arg-Lys-Lys).
T3 sequence: AAKIQASFRGHMARKK

Ends that are not written are not given here. * marks the point of attachment. biotin C6 = biotin C6 moiety, O=C(CCCC[C@@H]1SC[C@@H]2NC(=O)N[C@@H]21)NCCCCCC(=O)*

With “*-Ala-Ala-Lys-Ile-Gln-Ala-Ser-Phe-Arg-Gly-His-Met-Ala-Arg-Lys-Lys ({biotin C6}-AAKIQASFRGHMARKK) [Promega Peptide B, N-terminal Biotin C6 neurogranin-derived peptide substrate for PKC]”, in data set [1] (PKC, 25° C., FIG. 7), the “substrate concentration at which enzyme activity reached a maximum” value is recorded as “around 100 μM”. In addition, the “PKC activity relative to activity assayed with the phosphocellulose paper method” value in data set [1] (biotinylated substrate/streptavidin matrix versus unmodified peptide/phosphocellulose paper) was 6-7 fold.
Turning to “cAMP-dependent protein kinase (PKA), purified enzyme (Promega #V5221)”, the “Km (kinase activity, 32P incorporation into biotinylated peptide captured on streptavidin disks)” value in data set [2] is reported as “a Km Value for the substrate of 33 µM”.
A word on the Km: it is the concentration of substrate that gives half-maximal velocity. As to “*-Leu-Arg-Arg-Ala-Ser-Leu-Gly ({biotin C6}-LRRASLG) [Promega Peptide A, N-terminal Biotin C6 peptide substrate for PKA]”, in data set [3], the Michaelis constant (Km) came out at 33 µM and the Vmax value is 1.45 pmol/min.
Consider “Ca2+ and phospholipid dependent protein kinase (PKC) (#V5261, Promega Corporation)”, for which the “substrate concentration at which kinase activity reached a maximum” value in data set [4] is “the activity of the enzyme reached a maximum around 100 µM of modified substrate”.

For the origin of these results see US6753157B2, “Quantitation of individual protein kinase activity” (Promega Corporation, priority 1994, dated 2004).
